Test results as given in patent US12643935B2, “PD-L1 binding peptides” (UNIVERSITY OF SOUTHERN CALIFORNIA, priority 2020, dated 2026).
Entries after “also recorded” stand apart in the source; their conditions may differ.

What was measured:
hPD-L1 [1] = molecular target: T1, hPD-L1 (Homo sapiens, UniProt Q9NZQ7); test: Radioactive competition assay: [35S]-SPAM binding to immobilized hPD-L1 with competitor; conditions: 5 μM competitor
T1 construct: designed from A18 to T239 with a methionine added to the N-terminus; hexahistidine tag (C); made in house
Method: For radioactive competition assays, hPD-L1-immobilized streptavidin agarose beads were preincubated with the desired competitor for one hour at 4° C. followed by addition of the radiolabeled peptide for 1 h. The ratio of the counts remaining on the beads to the total counts added to the binding reaction was calculated to determine the percent bound.

hPD-L1 [2] = molecular target: T1, hPD-L1; test: Surface plasmon resonance of mPD-1 on immobilized hPD-L1; conditions: SPR, 25° C., one-site saturation binding model; read-out: dissociation constant (KD) hPD-L1/mPD-1
Method: In order to confirm that the expressed hPD-L1 was correctly folded, binding to mPD-1 was measured by SPR. The dissociation constant (KD) between recombinant hPD-L1 and PD-1 was determined to be 3.2±0.3 μM using a one-site saturation binding model (FIG. 7).
SPR analysis was performed on a Biacore T-100 at the USC Nanobiophysics core. E. coli expressed biotinylated hPD-L1 was immobilized onto a sensor chip SA (GE Healthcare Life Sciences) and different concentrations (from 1.5×10^−7 to 2.9×10^−5 M) of mPD-1 was flowed over the chip at a rate of 50 μL/min for 60 seconds in a buffer consisting of 50 mM HEPES-KOH pH 7.5, 150 mM NaCl, 0.05% (v/v) Tween-20 and 1 mg/mL BSA at 25° C. The response values were fit to a one-site saturation binding model in GraphPad Prism to obtain an equilibrium binding constant.

B1: mPD-1: murine variant of PD-1, recombinant extracellular domain with HA tag and His tag (protein)
chain: MALEVPNGPWRSLTFYPAWLTVSEGANATFTCSLSNWSEDLMLNWNRLSPSNQTEKQAAFSNGLSQPVQDARFQIIQLPNRHDFHMNILDTRRNDSGIYLCGAISLHPKAKIEESPGAELVVTERILETSTRYPSGGYPYDVPDYALEHHHHHH
modifications: HA tag and His tag
notes: murine variant of PD-1, recombinant extracellular domain with HA tag and His tag
- effect on [35S]-SPAM binding to immobilized hPD-L1 (hPD-L1 [1]): significantly inhibited; also recorded: disrupted
- Kd (hPD-L1 [2]): ~3000 nM
